This note sets out measurements from patent publication US20160032005A1 (INSERM INSTITUT NATIONAL DE LA SANTE ET DE LA RECHERCHE …, published 2016).

To fix the notation:
B2: Vangl2 in COS-7 cells (receptor)
chain: MDTESQYSGYSYKSGHSRSSRKHRDRRDRHRSKSRDGGRGDKSVTIQAPGEPLLDNESTRGDERDDNWGETTTVVTGTSEHSISHDDLTRIAKDMEDSVPLDCSRHLGVAAGATLALLSFLTPLAFLLLPPLLWREELEPCGTACEGLFISVAFKLLILLLGSWALFFRRPKASLPRVFVLRALLMVLVFLLVVSYWLFYGVRILDARERSYQGVVQFAVSLVDALLFVHYLAVVLLELRQLQPQFTLKVVRSTDGASRFYNVGHLSIQRVAVWILEKYYHDFPVYNPALLNLPKSVLAKKVSGFKVYSLGEENSTNNSTGQSRAVIAAAARRRDNSHNEYYYEEAEHERRVRKRRARLVVAVEEAFTHIKRLQEEEQKNPREVMDPREAAQAIFASMARAMQKYLRTTKQQPYHTMESILQHLEFCITHDMTPKAFLERYLAAGPTIQYHKERWLAKQWTLVSEEPVTNGLKDGIVFLLKRQDFSLVVSTKKVPFFKLSEEFVDPKSHKFVMRLQSETSV
notes: Vangl2 immunoprecipitated with 2G4 mAb from COS-7 cells

The experiment “Vangl2 in COS-7 cells” deals with B2. The experiment in a line: immunoprecipitation with 2G4 mAb, COS-7 cells.
The target in experiment [1] is GFP-p62 with deletion of a region containing the LIR domain (256-370) (Homo sapiens, UniProt P42212 1-238 = GFP). The experiment in a line: immunoprecipitation with 2G4 mAb, COS-7 cells.

B1: EGFP-tagged p62 (1-122), PB1 domain alone (other)
chain: MASLTVKAYLLGKEDAAREIRRFSFCCSPEPEAEAEAAAGPGPCERLLSRVAALFPALRPGGFQAHYRDEDGDLVAFSSDEELTMAMSYVKDDIFRIYIKEKKECRRDHRPPCAQEAPRNMV
notes: not shown: EGFP tag
Turning to B1, the binding result with Vangl2 in COS-7 cells is recorded as “no binding”.
On to B2, for which the binding result in experiment [1] was “no binding”.
